Where “and” joins values, the source holds several entries; their conditions need not be identical. Identical values can stand only once.
Target: HRgpA-6H (Porphyromonas gingivalis) (UniProt P28784)
Assay: ELISA, coated HRgpA-6H

UniProt P28784, sequence (P28784 228-860 limits assumed): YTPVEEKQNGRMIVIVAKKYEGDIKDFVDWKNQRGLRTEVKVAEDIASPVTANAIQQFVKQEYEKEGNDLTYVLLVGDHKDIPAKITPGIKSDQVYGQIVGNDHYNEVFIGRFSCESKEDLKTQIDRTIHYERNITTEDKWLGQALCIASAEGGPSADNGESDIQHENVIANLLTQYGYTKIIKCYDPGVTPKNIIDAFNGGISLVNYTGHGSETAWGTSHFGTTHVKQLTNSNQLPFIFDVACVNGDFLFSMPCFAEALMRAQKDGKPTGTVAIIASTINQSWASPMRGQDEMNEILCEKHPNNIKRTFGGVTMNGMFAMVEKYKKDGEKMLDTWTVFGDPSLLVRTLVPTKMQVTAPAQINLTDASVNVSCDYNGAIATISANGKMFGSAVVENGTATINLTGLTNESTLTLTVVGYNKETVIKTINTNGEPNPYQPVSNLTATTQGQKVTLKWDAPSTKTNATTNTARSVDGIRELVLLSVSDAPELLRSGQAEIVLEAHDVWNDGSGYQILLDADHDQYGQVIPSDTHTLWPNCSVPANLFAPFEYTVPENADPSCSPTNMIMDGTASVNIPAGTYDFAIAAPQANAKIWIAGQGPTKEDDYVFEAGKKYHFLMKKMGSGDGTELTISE

| Binder | OD450 nm | Ratio OD(Variant)/OD(WT) |
| --- | --- | --- |
| KB001 mouse Fab VH S28A (Fab, V domains shown) VH: EVQLKQSGPGLVAPSQSLSITCTVSGFALSIYSVHWVRQPPGKGLEWLGMIWGGGSSDYNSALKSRLSISKDNSKSQVFLKMNSLQTDDTAMYYCARNGNFYAMDYWGQGTSVTVSS VL: QIVLTQSPAIMSASLGERVTMTCTASSSVSSSFLHWYQQKPGSSPQLWIYSTSNLASGVPARFSGSGSGTSYSLTISSMEAEDAATYYCHQYHHSPYIYTFGGGTKLEIK | 0.488 | 0.904 |
| KB001 mouse Fab VH S28N (Fab, V domains shown) VH: EVQLKQSGPGLVAPSQSLSITCTVSGFNLSIYSVHWVRQPPGKGLEWLGMIWGGGSSDYNSALKSRLSISKDNSKSQVFLKMNSLQTDDTAMYYCARNGNFYAMDYWGQGTSVTVSS VL: QIVLTQSPAIMSASLGERVTMTCTASSSVSSSFLHWYQQKPGSSPQLWIYSTSNLASGVPARFSGSGSGTSYSLTISSMEAEDAATYYCHQYHHSPYIYTFGGGTKLEIK | 0.53 | 0.981 |
| KB001 mouse Fab VH L29P (Fab, V domains shown) VH: EVQLKQSGPGLVAPSQSLSITCTVSGFSPSIYSVHWVRQPPGKGLEWLGMIWGGGSSDYNSALKSRLSISKDNSKSQVFLKMNSLQTDDTAMYYCARNGNFYAMDYWGQGTSVTVSS VL: QIVLTQSPAIMSASLGERVTMTCTASSSVSSSFLHWYQQKPGSSPQLWIYSTSNLASGVPARFSGSGSGTSYSLTISSMEAEDAATYYCHQYHHSPYIYTFGGGTKLEIK | 0.468 | 0.867 |
| KB001 mouse Fab VH S30W (Fab, V domains shown) VH: EVQLKQSGPGLVAPSQSLSITCTVSGFSLWIYSVHWVRQPPGKGLEWLGMIWGGGSSDYNSALKSRLSISKDNSKSQVFLKMNSLQTDDTAMYYCARNGNFYAMDYWGQGTSVTVSS VL: QIVLTQSPAIMSASLGERVTMTCTASSSVSSSFLHWYQQKPGSSPQLWIYSTSNLASGVPARFSGSGSGTSYSLTISSMEAEDAATYYCHQYHHSPYIYTFGGGTKLEIK | 0.469 | 0.93 |
| KB001 mouse Fab VH L29T (Fab, V domains shown) VH: EVQLKQSGPGLVAPSQSLSITCTVSGFSTSIYSVHWVRQPPGKGLEWLGMIWGGGSSDYNSALKSRLSISKDNSKSQVFLKMNSLQTDDTAMYYCARNGNFYAMDYWGQGTSVTVSS VL: QIVLTQSPAIMSASLGERVTMTCTASSSVSSSFLHWYQQKPGSSPQLWIYSTSNLASGVPARFSGSGSGTSYSLTISSMEAEDAATYYCHQYHHSPYIYTFGGGTKLEIK | 0.502 and 0.512 and 0.501 | 0.93 and 0.948 and 0.928 |
| KB001 mouse Fab VH S28Y (Fab, V domains shown) VH: EVQLKQSGPGLVAPSQSLSITCTVSGFYLSIYSVHWVRQPPGKGLEWLGMIWGGGSSDYNSALKSRLSISKDNSKSQVFLKMNSLQTDDTAMYYCARNGNFYAMDYWGQGTSVTVSS VL: QIVLTQSPAIMSASLGERVTMTCTASSSVSSSFLHWYQQKPGSSPQLWIYSTSNLASGVPARFSGSGSGTSYSLTISSMEAEDAATYYCHQYHHSPYIYTFGGGTKLEIK | 0.437 | 0.809 |
| KB001 mouse Fab VH S30R (Fab, V domains shown) VH: EVQLKQSGPGLVAPSQSLSITCTVSGFSLRIYSVHWVRQPPGKGLEWLGMIWGGGSSDYNSALKSRLSISKDNSKSQVFLKMNSLQTDDTAMYYCARNGNFYAMDYWGQGTSVTVSS VL: QIVLTQSPAIMSASLGERVTMTCTASSSVSSSFLHWYQQKPGSSPQLWIYSTSNLASGVPARFSGSGSGTSYSLTISSMEAEDAATYYCHQYHHSPYIYTFGGGTKLEIK | 0.481 | 0.953 |
| KB001 mouse Fab VH S30T (Fab, V domains shown) VH: EVQLKQSGPGLVAPSQSLSITCTVSGFSLTIYSVHWVRQPPGKGLEWLGMIWGGGSSDYNSALKSRLSISKDNSKSQVFLKMNSLQTDDTAMYYCARNGNFYAMDYWGQGTSVTVSS VL: QIVLTQSPAIMSASLGERVTMTCTASSSVSSSFLHWYQQKPGSSPQLWIYSTSNLASGVPARFSGSGSGTSYSLTISSMEAEDAATYYCHQYHHSPYIYTFGGGTKLEIK | 0.457 | 0.906 |
| KB001 mouse Fab VH S30Q (Fab, V domains shown) VH: EVQLKQSGPGLVAPSQSLSITCTVSGFSLQIYSVHWVRQPPGKGLEWLGMIWGGGSSDYNSALKSRLSISKDNSKSQVFLKMNSLQTDDTAMYYCARNGNFYAMDYWGQGTSVTVSS VL: QIVLTQSPAIMSASLGERVTMTCTASSSVSSSFLHWYQQKPGSSPQLWIYSTSNLASGVPARFSGSGSGTSYSLTISSMEAEDAATYYCHQYHHSPYIYTFGGGTKLEIK | 0.47 and 0.483 | 0.932 and 0.957 |
| KB001 mouse Fab VH S30F (Fab, V domains shown) VH: EVQLKQSGPGLVAPSQSLSITCTVSGFSLFIYSVHWVRQPPGKGLEWLGMIWGGGSSDYNSALKSRLSISKDNSKSQVFLKMNSLQTDDTAMYYCARNGNFYAMDYWGQGTSVTVSS VL: QIVLTQSPAIMSASLGERVTMTCTASSSVSSSFLHWYQQKPGSSPQLWIYSTSNLASGVPARFSGSGSGTSYSLTISSMEAEDAATYYCHQYHHSPYIYTFGGGTKLEIK | 0.438 | 0.868 |
| KB001 mouse Fab VH S30L (Fab, V domains shown) VH: EVQLKQSGPGLVAPSQSLSITCTVSGFSLLIYSVHWVRQPPGKGLEWLGMIWGGGSSDYNSALKSRLSISKDNSKSQVFLKMNSLQTDDTAMYYCARNGNFYAMDYWGQGTSVTVSS VL: QIVLTQSPAIMSASLGERVTMTCTASSSVSSSFLHWYQQKPGSSPQLWIYSTSNLASGVPARFSGSGSGTSYSLTISSMEAEDAATYYCHQYHHSPYIYTFGGGTKLEIK | 0.468 | 0.928 |
| KB001 mouse Fab VH S30M (Fab, V domains shown) VH: EVQLKQSGPGLVAPSQSLSITCTVSGFSLMIYSVHWVRQPPGKGLEWLGMIWGGGSSDYNSALKSRLSISKDNSKSQVFLKMNSLQTDDTAMYYCARNGNFYAMDYWGQGTSVTVSS VL: QIVLTQSPAIMSASLGERVTMTCTASSSVSSSFLHWYQQKPGSSPQLWIYSTSNLASGVPARFSGSGSGTSYSLTISSMEAEDAATYYCHQYHHSPYIYTFGGGTKLEIK | 0.437 | 0.866 |
| KB001 mouse Fab VH S28R (Fab, V domains shown) VH: EVQLKQSGPGLVAPSQSLSITCTVSGFRLSIYSVHWVRQPPGKGLEWLGMIWGGGSSDYNSALKSRLSISKDNSKSQVFLKMNSLQTDDTAMYYCARNGNFYAMDYWGQGTSVTVSS VL: QIVLTQSPAIMSASLGERVTMTCTASSSVSSSFLHWYQQKPGSSPQLWIYSTSNLASGVPARFSGSGSGTSYSLTISSMEAEDAATYYCHQYHHSPYIYTFGGGTKLEIK | 0.458 | 0.848 |
| KB001 mouse Fab VH S30K (Fab, V domains shown) VH: EVQLKQSGPGLVAPSQSLSITCTVSGFSLKIYSVHWVRQPPGKGLEWLGMIWGGGSSDYNSALKSRLSISKDNSKSQVFLKMNSLQTDDTAMYYCARNGNFYAMDYWGQGTSVTVSS VL: QIVLTQSPAIMSASLGERVTMTCTASSSVSSSFLHWYQQKPGSSPQLWIYSTSNLASGVPARFSGSGSGTSYSLTISSMEAEDAATYYCHQYHHSPYIYTFGGGTKLEIK | 0.46 and 0.467 and 0.493 | 0.912 and 0.926 and 0.977 |
| KB001 mouse Fab VH L29V (Fab, V domains shown) VH: EVQLKQSGPGLVAPSQSLSITCTVSGFSVSIYSVHWVRQPPGKGLEWLGMIWGGGSSDYNSALKSRLSISKDNSKSQVFLKMNSLQTDDTAMYYCARNGNFYAMDYWGQGTSVTVSS VL: QIVLTQSPAIMSASLGERVTMTCTASSSVSSSFLHWYQQKPGSSPQLWIYSTSNLASGVPARFSGSGSGTSYSLTISSMEAEDAATYYCHQYHHSPYIYTFGGGTKLEIK | 0.446 | 0.826 |

Source: patent US20240400654A1
